# Data taken from patent US20050119176A1 (BURNHAM INSTITUTE, published 2005).
# Where no end group is shown, it is not given here. [ ]: non-standard residue; d: D form. 2Nal = N[C@@H](Cc1ccc2ccccc2c1)C(=O)O; d2Nal = N[C@H](Cc1ccc2ccccc2c1)C(=O)O; 2Thi = N[C@@H](Cc1cccs1)C(=O)O; Cha = N[C@@H](CC1CCCCC1)C(=O)O; d2Thi = N[C@H](Cc1cccs1)C(=O)O; dCha = N[C@H](CC1CCCCC1)C(=O)O
# B1: TPI 1332-41 (peptide)
# peptide: [Cha][d2Nal]W[2Thi]
# modifications: also: Trp may retain a formyl group
# B2: TPI 1352-72 (peptide)
# peptide: [2Nal][d2Thi][dF][dW]
# B3: TPI 1332-47 / TPI 1352-47 (peptide)
# peptide: A[dW]W[2Thi]
# modifications: also: Trp of TPI 1332 batch may retain formyl groups
# B4: TPI 1352-66 (peptide)
# peptide: [2Nal][dCha]W[dW]
# B5: TPI 1332-1 / TPI 1352-1 (peptide)
# peptide: AWW[2Thi]
# modifications: also: Trp of TPI 1332 batch may retain formyl groups
# B6: TPI 1352-6 (peptide)
# peptide: A[dW]W[2Thi]
# Key:
# [1] = target: BIR3RING (human) (UniProt P98170); assay: fluorescence polarization; 20 nM rhodamine-SMAC, BIR3RING titrated
# [2] = target: GST-BIR2 (glutathione-S-transferase-BIR2 fusion protein) (human) (UniProt P98170); assay: fluorescence polarization; 20 nM rhodamine-SMAC, GST-BIR2 from 0 to 495 nM
# [3] = target: GST-XIAP (human, UniProt P98170 1-497); assay: cell-based or functional assay
# GST-XIAP, sequence (P98170 whole entry): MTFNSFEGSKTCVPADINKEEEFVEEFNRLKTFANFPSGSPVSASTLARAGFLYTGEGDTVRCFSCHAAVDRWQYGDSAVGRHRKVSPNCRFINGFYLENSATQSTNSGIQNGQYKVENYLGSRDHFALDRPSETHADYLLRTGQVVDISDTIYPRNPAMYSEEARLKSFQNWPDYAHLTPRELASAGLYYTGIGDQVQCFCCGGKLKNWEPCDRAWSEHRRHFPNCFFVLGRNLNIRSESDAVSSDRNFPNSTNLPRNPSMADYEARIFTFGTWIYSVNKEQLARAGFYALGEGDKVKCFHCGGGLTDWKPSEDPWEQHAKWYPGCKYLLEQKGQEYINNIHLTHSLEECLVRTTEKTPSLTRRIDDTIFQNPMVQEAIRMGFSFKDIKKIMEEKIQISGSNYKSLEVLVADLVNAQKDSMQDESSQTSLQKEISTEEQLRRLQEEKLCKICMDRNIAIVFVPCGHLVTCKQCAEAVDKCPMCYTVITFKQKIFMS
# GST-BIR2 (glutathione-S-transferase-BIR2 fusion protein) (human), sequence (P98170 124-240): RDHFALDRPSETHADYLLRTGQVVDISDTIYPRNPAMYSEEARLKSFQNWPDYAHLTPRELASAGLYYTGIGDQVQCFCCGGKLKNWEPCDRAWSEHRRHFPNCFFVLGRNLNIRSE
# BIR3RING (human), sequence (P98170 243-497 limits assumed): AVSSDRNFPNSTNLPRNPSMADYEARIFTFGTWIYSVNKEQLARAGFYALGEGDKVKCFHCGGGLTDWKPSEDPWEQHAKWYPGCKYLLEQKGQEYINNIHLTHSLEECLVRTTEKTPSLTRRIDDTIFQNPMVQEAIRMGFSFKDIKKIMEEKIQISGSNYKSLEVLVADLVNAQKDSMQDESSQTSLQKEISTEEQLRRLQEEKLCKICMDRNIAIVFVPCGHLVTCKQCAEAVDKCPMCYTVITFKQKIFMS
Kd [1] [nM],Kd [2] [nM],ratio of Vmax for hydrolysis of Ac-DEVD-AFC with and without the peptide (caspase-3 + XIAP) [3],Molecule
80,100,,rhodamine labeled SMAC (rhodamine-SMAC) of Example VII (peptide)
,,> 2.4,B1
,,> 2.4,B2
,,> 2.4,B3
,,> 2.4,B4
,,> 2.4,B5
,,> 2.4,B6
